Results: paper PMC10023680 (2023)

B1: RhoG (residues 1-184) (domain or fragment)
chain: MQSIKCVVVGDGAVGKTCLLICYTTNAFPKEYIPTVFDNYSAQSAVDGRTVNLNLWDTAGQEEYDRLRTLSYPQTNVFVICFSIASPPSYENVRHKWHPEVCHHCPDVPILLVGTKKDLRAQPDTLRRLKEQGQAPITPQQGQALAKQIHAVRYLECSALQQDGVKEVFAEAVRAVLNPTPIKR

What was measured:
Test in all cases: SPR
[1] = biological target: B1
[2] = biological target: GST-tagged ELMO1-RBD (residues 1-113) K20E (human, UniProt Q92556 1-113, K20E)
[3] = biological target: GST-tagged ELMO1-RBD (residues 1-113) Y18A (human, UniProt Q92556 1-113, Y18A)

| Kd [1] [µM] | Kd [2] [µM] | Kd [3] [µM] | Binder |
| --- | --- | --- | --- |
| 8.4 |  |  | GST-tagged ELMO1-RBD (residues 1-113), wild-type (domain or fragment) MPPPADIVKVAIEWPGAYPKLMEIDQKKPLSAIIKEVCDGWSLANHEYFALQHADSSNFYITEKNRNEIKNGTILRLTTSPAQNAQQLHERIQSSSMDAKLEALKDLASLSRD |
|  | 18.2 | 19.3 | B1 |
